Laboratory results reported in the supplement of paper PMC10065799, “High-throughput profiling of sequence recognition by tyrosine kinases and SH2 domains using bacterial peptide display” (eLife, 2023).

Columns and labels:
c-Src SH2 = assay: SH2 binding enrichment of the phosphorylated peptide, bacterial display (enrichment ratio); higher = better substrate or ligand; peptides without Tyr show the background
Grb2 SH2 = Grb2 SH2 (UniProt P62993); assay: as above
SHP2-C SH2 = assay: as above
Fer (mouse) = assay: phosphorylation enrichment, bacterial display (enrichment ratio); higher = better substrate or ligand; peptides without Tyr show the background
FGFR1 = FGFR1 (UniProt P11362); assay: as above
Sequence of FGFR1 (P11362 whole entry, looked up): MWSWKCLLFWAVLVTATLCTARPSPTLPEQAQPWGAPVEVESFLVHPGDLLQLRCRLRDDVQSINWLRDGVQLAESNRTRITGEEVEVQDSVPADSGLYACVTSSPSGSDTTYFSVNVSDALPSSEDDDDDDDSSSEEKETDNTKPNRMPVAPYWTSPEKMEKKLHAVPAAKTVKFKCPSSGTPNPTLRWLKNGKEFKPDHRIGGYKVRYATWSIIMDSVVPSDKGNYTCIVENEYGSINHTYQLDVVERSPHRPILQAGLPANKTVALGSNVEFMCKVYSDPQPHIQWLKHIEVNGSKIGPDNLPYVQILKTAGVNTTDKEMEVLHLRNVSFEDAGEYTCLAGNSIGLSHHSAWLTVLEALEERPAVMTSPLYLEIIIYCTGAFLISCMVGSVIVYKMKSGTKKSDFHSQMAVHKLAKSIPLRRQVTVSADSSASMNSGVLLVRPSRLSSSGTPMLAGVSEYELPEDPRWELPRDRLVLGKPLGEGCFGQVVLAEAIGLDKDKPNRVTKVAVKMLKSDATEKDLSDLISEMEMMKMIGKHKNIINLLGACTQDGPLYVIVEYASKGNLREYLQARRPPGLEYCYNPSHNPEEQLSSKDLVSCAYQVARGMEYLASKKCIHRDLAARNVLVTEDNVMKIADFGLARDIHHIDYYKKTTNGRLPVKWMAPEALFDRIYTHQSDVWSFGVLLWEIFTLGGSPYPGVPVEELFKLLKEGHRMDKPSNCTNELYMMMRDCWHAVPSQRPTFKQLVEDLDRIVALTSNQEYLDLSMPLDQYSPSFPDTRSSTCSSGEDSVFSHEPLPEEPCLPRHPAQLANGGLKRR

EPHB1 = EPHB1 (UniProt P54762); assay: as above
Fes = Fes (UniProt P07332); assay: as above
EPHB2 = EPHB2 (UniProt P29323); assay: as above
Sequence of EPHB2 (P29323 whole entry, looked up): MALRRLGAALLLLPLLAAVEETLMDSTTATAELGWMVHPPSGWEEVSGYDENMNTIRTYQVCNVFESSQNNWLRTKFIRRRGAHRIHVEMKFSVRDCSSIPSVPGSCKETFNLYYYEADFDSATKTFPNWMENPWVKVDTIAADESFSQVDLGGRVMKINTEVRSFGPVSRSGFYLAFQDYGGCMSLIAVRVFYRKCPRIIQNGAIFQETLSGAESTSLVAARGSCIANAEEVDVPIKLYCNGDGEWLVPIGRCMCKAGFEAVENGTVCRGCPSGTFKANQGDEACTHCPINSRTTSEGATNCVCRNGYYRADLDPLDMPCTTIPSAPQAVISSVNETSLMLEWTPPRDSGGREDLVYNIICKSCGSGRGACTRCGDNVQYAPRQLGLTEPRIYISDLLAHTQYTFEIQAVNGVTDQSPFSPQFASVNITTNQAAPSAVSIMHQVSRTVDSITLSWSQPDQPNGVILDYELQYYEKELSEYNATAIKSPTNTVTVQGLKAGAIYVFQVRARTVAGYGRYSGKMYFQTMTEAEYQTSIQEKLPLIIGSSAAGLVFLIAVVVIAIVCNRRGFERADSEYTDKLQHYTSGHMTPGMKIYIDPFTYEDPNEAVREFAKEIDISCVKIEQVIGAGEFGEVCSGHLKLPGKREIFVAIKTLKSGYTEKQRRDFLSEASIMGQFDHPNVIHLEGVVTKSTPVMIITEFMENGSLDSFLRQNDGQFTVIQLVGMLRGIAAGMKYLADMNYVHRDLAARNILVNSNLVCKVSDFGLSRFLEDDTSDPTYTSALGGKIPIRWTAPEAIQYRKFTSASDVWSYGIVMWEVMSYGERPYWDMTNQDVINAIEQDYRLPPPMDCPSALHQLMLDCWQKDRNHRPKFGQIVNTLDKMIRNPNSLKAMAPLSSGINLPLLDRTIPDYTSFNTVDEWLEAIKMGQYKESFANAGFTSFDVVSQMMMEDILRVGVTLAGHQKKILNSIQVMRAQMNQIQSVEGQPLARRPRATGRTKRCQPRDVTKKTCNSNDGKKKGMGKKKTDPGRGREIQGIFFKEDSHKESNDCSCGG

Jak2 = Jak2 (UniProt O60674); assay: as above
Sequence of Jak2 (O60674 whole entry, looked up): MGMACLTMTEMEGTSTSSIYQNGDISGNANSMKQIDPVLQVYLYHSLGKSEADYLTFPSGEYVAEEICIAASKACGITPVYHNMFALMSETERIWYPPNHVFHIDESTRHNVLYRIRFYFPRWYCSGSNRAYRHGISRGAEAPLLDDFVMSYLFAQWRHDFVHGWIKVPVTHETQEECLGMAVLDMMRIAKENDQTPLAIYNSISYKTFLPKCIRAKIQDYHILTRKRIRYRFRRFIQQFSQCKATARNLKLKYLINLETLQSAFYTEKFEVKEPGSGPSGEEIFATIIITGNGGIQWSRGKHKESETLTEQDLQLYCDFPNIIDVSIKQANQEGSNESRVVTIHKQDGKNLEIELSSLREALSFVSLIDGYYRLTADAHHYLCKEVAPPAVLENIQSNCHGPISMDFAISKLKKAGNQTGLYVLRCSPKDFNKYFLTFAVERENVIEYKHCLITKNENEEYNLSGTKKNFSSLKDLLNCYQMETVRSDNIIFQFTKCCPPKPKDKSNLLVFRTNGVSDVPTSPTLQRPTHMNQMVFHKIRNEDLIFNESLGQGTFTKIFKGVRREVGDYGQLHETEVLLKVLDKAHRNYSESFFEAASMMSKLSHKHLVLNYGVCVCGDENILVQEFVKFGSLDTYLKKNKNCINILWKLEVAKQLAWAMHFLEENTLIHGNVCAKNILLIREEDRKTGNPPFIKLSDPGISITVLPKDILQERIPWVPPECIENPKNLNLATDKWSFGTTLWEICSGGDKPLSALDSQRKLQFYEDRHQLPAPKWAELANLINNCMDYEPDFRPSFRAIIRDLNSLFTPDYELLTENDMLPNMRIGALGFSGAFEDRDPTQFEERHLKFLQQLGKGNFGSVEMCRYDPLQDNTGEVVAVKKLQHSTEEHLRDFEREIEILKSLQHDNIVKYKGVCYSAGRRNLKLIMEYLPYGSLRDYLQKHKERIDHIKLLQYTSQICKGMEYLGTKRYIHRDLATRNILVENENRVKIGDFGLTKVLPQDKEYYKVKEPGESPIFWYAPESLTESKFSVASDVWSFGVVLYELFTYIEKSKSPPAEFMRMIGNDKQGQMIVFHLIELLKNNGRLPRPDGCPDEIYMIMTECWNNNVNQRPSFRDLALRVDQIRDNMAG

FGFR3 = FGFR3 (UniProt P22607); assay: as above
c-Abl (mouse) = assay: as above
AncSZ = assay: as above
c-Src = assay: as above
Hck = Hck (UniProt P08631); assay: as above
Sequence of Hck (P08631 whole entry, looked up): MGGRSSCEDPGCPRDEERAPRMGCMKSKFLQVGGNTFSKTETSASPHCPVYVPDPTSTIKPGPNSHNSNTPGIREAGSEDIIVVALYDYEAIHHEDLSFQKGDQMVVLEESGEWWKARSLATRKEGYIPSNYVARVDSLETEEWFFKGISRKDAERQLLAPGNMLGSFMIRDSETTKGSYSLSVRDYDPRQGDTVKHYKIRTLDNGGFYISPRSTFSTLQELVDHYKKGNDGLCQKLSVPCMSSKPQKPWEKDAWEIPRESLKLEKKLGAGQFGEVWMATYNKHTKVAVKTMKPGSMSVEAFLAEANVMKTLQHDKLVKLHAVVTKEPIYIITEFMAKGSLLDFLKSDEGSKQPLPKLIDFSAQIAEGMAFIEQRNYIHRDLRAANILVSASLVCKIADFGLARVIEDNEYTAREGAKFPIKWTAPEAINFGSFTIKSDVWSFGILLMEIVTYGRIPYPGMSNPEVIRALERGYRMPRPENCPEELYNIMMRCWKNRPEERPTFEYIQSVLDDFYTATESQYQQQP

MERTK = MERTK (UniProt Q12866); assay: as above
Sequence of MERTK (Q12866 whole entry, looked up): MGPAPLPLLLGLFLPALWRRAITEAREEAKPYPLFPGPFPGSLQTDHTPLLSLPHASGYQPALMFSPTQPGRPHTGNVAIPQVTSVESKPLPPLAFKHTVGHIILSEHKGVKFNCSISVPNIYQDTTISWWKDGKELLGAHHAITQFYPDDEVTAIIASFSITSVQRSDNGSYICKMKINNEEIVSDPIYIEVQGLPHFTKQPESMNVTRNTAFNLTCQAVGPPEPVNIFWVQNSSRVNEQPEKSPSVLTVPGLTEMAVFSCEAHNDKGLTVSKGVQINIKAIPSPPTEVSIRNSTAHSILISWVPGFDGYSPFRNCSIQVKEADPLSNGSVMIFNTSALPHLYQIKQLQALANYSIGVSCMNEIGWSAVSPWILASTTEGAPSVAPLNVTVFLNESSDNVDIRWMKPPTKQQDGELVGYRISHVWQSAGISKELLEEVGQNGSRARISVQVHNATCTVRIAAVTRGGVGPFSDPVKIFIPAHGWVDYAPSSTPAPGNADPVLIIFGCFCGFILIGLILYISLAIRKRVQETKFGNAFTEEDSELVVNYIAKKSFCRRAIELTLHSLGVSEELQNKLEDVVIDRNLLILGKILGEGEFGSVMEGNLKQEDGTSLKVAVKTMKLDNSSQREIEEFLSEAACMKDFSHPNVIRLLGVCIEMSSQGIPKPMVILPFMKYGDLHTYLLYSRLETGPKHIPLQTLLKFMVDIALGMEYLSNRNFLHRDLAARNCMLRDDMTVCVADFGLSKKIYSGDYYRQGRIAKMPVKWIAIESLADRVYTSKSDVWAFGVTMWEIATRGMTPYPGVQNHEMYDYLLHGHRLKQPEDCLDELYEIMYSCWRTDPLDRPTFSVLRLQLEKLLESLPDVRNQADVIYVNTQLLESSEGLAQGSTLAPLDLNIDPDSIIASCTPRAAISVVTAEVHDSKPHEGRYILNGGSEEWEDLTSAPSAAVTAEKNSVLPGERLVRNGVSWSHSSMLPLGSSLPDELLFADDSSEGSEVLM

Fyn = Fyn (UniProt P06241); assay: as above
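For SH2 binding enrichment of the phosphorylated peptide, bacterial display in this document: peptide library displayed on the E. coli surface as eCPX fusions, selected cells deep-sequenced, score is each peptide's frequency after selection divided by its frequency in the input.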
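For phosphorylation enrichment, bacterial display in this document: 11-residue human phosphosite peptides and single-mutation variants displayed on the E. coli surface, counted by deep sequencing, each peptide's frequency after selection divided by its frequency in the unselected input library; frequency after pTyr selection over input frequency; kinase dosed for 20-30% of maximal phosphorylation in three min.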

Sequence of Grb2 SH2 (P62993 whole entry, looked up): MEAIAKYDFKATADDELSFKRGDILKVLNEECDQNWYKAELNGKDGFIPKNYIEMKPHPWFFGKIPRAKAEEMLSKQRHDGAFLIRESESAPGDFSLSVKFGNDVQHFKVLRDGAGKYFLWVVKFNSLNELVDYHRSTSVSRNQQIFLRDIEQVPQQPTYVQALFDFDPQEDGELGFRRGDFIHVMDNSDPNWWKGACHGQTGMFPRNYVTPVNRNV

## KKFVPYFDLFM [IPO5_Y530_E525K_YF]
c-Src SH2
  SH2 binding enrichment: 0.878
Grb2 SH2
  SH2 binding enrichment: 1.58
SHP2-C SH2
  SH2 binding enrichment: 0.831
Fer (mouse)
  phosphorylation enrichment: 0.53
FGFR1
  phosphorylation enrichment: 0.79
EPHB1
  phosphorylation enrichment: 0.722
Fes
  phosphorylation enrichment: 1.35
EPHB2
  phosphorylation enrichment: 0.707
Jak2
  phosphorylation enrichment: 1.14
FGFR3
  phosphorylation enrichment: 0.898
c-Abl (mouse)
  phosphorylation enrichment: 0.773
AncSZ
  phosphorylation enrichment: 1.29
c-Src
  phosphorylation enrichment: 0.526
Hck
  phosphorylation enrichment: 0.571
MERTK
  phosphorylation enrichment: 0.645
Fyn
  phosphorylation enrichment: 0.479

## QSLEPYTKQQL [STAT3_Y640_V637L]
c-Src SH2
  SH2 binding enrichment: 0.388
Grb2 SH2
  SH2 binding enrichment: 0.679
SHP2-C SH2
  SH2 binding enrichment: 0.558
Fer (mouse)
  phosphorylation enrichment: 0.424
FGFR1
  phosphorylation enrichment: 0.452
EPHB1
  phosphorylation enrichment: 0.497
Fes
  phosphorylation enrichment: 0.745
EPHB2
  phosphorylation enrichment: 0.371
Jak2
  phosphorylation enrichment: 0.48
FGFR3
  phosphorylation enrichment: 0.603
c-Abl (mouse)
  phosphorylation enrichment: 0.498
AncSZ
  phosphorylation enrichment: 0.537
c-Src
  phosphorylation enrichment: 0.309
Hck
  phosphorylation enrichment: 0.459
MERTK
  phosphorylation enrichment: 0.304
Fyn
  phosphorylation enrichment: 0.353

## PDNKPYIFKVF [PIK3AP1_Y553_E551K]
c-Src SH2
  SH2 binding enrichment: 0.568
Grb2 SH2
  SH2 binding enrichment: 1.08
SHP2-C SH2
  SH2 binding enrichment: 1.03
Fer (mouse)
  phosphorylation enrichment: 0.728
FGFR1
  phosphorylation enrichment: 0.681
EPHB1
  phosphorylation enrichment: 0.752
Fes
  phosphorylation enrichment: 1.75
EPHB2
  phosphorylation enrichment: 0.919
Jak2
  phosphorylation enrichment: 1.03
FGFR3
  phosphorylation enrichment: 0.831
c-Abl (mouse)
  phosphorylation enrichment: 0.79
AncSZ
  phosphorylation enrichment: 1.37
c-Src
  phosphorylation enrichment: 0.526
Hck
  phosphorylation enrichment: 0.619
MERTK
  phosphorylation enrichment: 0.428
Fyn
  phosphorylation enrichment: 0.665

## WCSNDYLGMSQ [ALAS2_Y199_R204Q]
c-Src SH2
  SH2 binding enrichment: 0.717
Grb2 SH2
  SH2 binding enrichment: 1.1
SHP2-C SH2
  SH2 binding enrichment: 0.738
Fer (mouse)
  phosphorylation enrichment: 0.642
FGFR1
  phosphorylation enrichment: 3.03
EPHB1
  phosphorylation enrichment: 1.52
Fes
  phosphorylation enrichment: 1.02
EPHB2
  phosphorylation enrichment: 0.944
Jak2
  phosphorylation enrichment: 4.19
FGFR3
  phosphorylation enrichment: 2.11
c-Abl (mouse)
  phosphorylation enrichment: 0.782
AncSZ
  phosphorylation enrichment: 2.88
c-Src
  phosphorylation enrichment: 1.06
Hck
  phosphorylation enrichment: 0.738
MERTK
  phosphorylation enrichment: 0.478
Fyn
  phosphorylation enrichment: 0.541

## HFPDVYAWEQL [ALX3_Y181_R183W_YF]
c-Src SH2
  SH2 binding enrichment: 0.809
Grb2 SH2
  SH2 binding enrichment: 1.23
SHP2-C SH2
  SH2 binding enrichment: 0.662
Fer (mouse)
  phosphorylation enrichment: 11.3
FGFR1
  phosphorylation enrichment: 0.616
EPHB1
  phosphorylation enrichment: 0.922
Fes
  phosphorylation enrichment: 1.46
EPHB2
  phosphorylation enrichment: 0.935
Jak2
  phosphorylation enrichment: 0.893
FGFR3
  phosphorylation enrichment: 0.674
c-Abl (mouse)
  phosphorylation enrichment: 0.632
AncSZ
  phosphorylation enrichment: 1.2
c-Src
  phosphorylation enrichment: 5.25
Hck
  phosphorylation enrichment: 3.06
MERTK
  phosphorylation enrichment: 2.25
Fyn
  phosphorylation enrichment: 7.03

## IENKLYGTSDP [RET_Y1062_M1064T]
c-Src SH2
  SH2 binding enrichment: 0.465
Grb2 SH2
  SH2 binding enrichment: 1.02
SHP2-C SH2
  SH2 binding enrichment: 0.604
Fer (mouse)
  phosphorylation enrichment: 0.549
FGFR1
  phosphorylation enrichment: 0.527
EPHB1
  phosphorylation enrichment: 0.563
Fes
  phosphorylation enrichment: 0.869
EPHB2
  phosphorylation enrichment: 0.544
Jak2
  phosphorylation enrichment: 0.817
FGFR3
  phosphorylation enrichment: 0.559
c-Abl (mouse)
  phosphorylation enrichment: 0.818
AncSZ
  phosphorylation enrichment: 0.858
c-Src
  phosphorylation enrichment: 0.509
Hck
  phosphorylation enrichment: 0.553
MERTK
  phosphorylation enrichment: 0.526
Fyn
  phosphorylation enrichment: 0.59

## GSIQQYTYKQE [PRG4_Y1271_I1272T]
c-Src SH2
  SH2 binding enrichment: 0.384
Grb2 SH2
  SH2 binding enrichment: 0.604
SHP2-C SH2
  SH2 binding enrichment: 0.599
Fer (mouse)
  phosphorylation enrichment: 0.437
FGFR1
  phosphorylation enrichment: 0.453
EPHB1
  phosphorylation enrichment: 0.45
Fes
  phosphorylation enrichment: 0.94
EPHB2
  phosphorylation enrichment: 0.494
Jak2
  phosphorylation enrichment: 0.806
FGFR3
  phosphorylation enrichment: 0.559
c-Abl (mouse)
  phosphorylation enrichment: 0.731
AncSZ
  phosphorylation enrichment: 0.773
c-Src
  phosphorylation enrichment: 0.444
Hck
  phosphorylation enrichment: 0.483
MERTK
  phosphorylation enrichment: 0.374
Fyn
  phosphorylation enrichment: 0.37

## SGDDGYAKDAK [TENM4_Y1530]
c-Src SH2
  SH2 binding enrichment: 0.445
Grb2 SH2
  SH2 binding enrichment: 0.733
SHP2-C SH2
  SH2 binding enrichment: 0.577
Fer (mouse)
  phosphorylation enrichment: 0.494
FGFR1
  phosphorylation enrichment: 0.501
EPHB1
  phosphorylation enrichment: 0.454
Fes
  phosphorylation enrichment: 0.741
EPHB2
  phosphorylation enrichment: 0.623
Jak2
  phosphorylation enrichment: 0.456
FGFR3
  phosphorylation enrichment: 0.562
c-Abl (mouse)
  phosphorylation enrichment: 0.456
AncSZ
  phosphorylation enrichment: 0.836
c-Src
  phosphorylation enrichment: 0.409
Hck
  phosphorylation enrichment: 0.584
MERTK
  phosphorylation enrichment: 0.386
Fyn
  phosphorylation enrichment: 0.564

## ERQIRYLNHQL [CEP152_Y268]
c-Src SH2
  SH2 binding enrichment: 0.512
Grb2 SH2
  SH2 binding enrichment: 0.842
SHP2-C SH2
  SH2 binding enrichment: 0.683
Fer (mouse)
  phosphorylation enrichment: 0.347
FGFR1
  phosphorylation enrichment: 0.412
EPHB1
  phosphorylation enrichment: 0.373
Fes
  phosphorylation enrichment: 0.527
EPHB2
  phosphorylation enrichment: 0.354
Jak2
  phosphorylation enrichment: 0.413
FGFR3
  phosphorylation enrichment: 0.39
c-Abl (mouse)
  phosphorylation enrichment: 0.523
AncSZ
  phosphorylation enrichment: 0.557
c-Src
  phosphorylation enrichment: 0.399
Hck
  phosphorylation enrichment: 0.4
MERTK
  phosphorylation enrichment: 0.382
Fyn
  phosphorylation enrichment: 0.396

## ISHVAYCVLGK [TRRAP_Y892_R893C]
c-Src SH2
  SH2 binding enrichment: 0.812
Grb2 SH2
  SH2 binding enrichment: 0.839
SHP2-C SH2
  SH2 binding enrichment: 1.53
Fer (mouse)
  phosphorylation enrichment: 0.952
FGFR1
  phosphorylation enrichment: 0.73
EPHB1
  phosphorylation enrichment: 0.731
Fes
  phosphorylation enrichment: 1.49
EPHB2
  phosphorylation enrichment: 0.79
Jak2
  phosphorylation enrichment: 1.17
FGFR3
  phosphorylation enrichment: 0.834
c-Abl (mouse)
  phosphorylation enrichment: 1.03
AncSZ
  phosphorylation enrichment: 1.3
c-Src
  phosphorylation enrichment: 0.523
Hck
  phosphorylation enrichment: 1.09
MERTK
  phosphorylation enrichment: 1.14
Fyn
  phosphorylation enrichment: 0.675

## NMHSTYAKLAA [SEC22B_Y193]
c-Src SH2
  SH2 binding enrichment: 1.71
Grb2 SH2
  SH2 binding enrichment: 0.796
SHP2-C SH2
  SH2 binding enrichment: 13.7
Fer (mouse)
  phosphorylation enrichment: 0.34
FGFR1
  phosphorylation enrichment: 0.385
EPHB1
  phosphorylation enrichment: 0.437
Fes
  phosphorylation enrichment: 0.401
EPHB2
  phosphorylation enrichment: 0.451
Jak2
  phosphorylation enrichment: 0.362
FGFR3
  phosphorylation enrichment: 0.349
c-Abl (mouse)
  phosphorylation enrichment: 0.47
AncSZ
  phosphorylation enrichment: 0.382
c-Src
  phosphorylation enrichment: 0.375
Hck
  phosphorylation enrichment: 0.948
MERTK
  phosphorylation enrichment: 0.38
Fyn
  phosphorylation enrichment: 0.415

## GVPLGYPIKAS [ELN_Y206_P211S]
c-Src SH2
  SH2 binding enrichment: 0.423
Grb2 SH2
  SH2 binding enrichment: 0.783
SHP2-C SH2
  SH2 binding enrichment: 0.581
Fer (mouse)
  phosphorylation enrichment: 0.376
FGFR1
  phosphorylation enrichment: 0.407
EPHB1
  phosphorylation enrichment: 0.327
Fes
  phosphorylation enrichment: 0.576
EPHB2
  phosphorylation enrichment: 0.333
Jak2
  phosphorylation enrichment: 0.477
FGFR3
  phosphorylation enrichment: 0.412
c-Abl (mouse)
  phosphorylation enrichment: 0.714
AncSZ
  phosphorylation enrichment: 0.438
c-Src
  phosphorylation enrichment: 0.381
Hck
  phosphorylation enrichment: 0.404
MERTK
  phosphorylation enrichment: 0.366
Fyn
  phosphorylation enrichment: 0.368

## VERRVYAEDPY [PCCA_Y401_C398R]
c-Src SH2
  SH2 binding enrichment: 0.55
Grb2 SH2
  SH2 binding enrichment: 0.89
SHP2-C SH2
  SH2 binding enrichment: 0.506
Fer (mouse)
  phosphorylation enrichment: 0.424
FGFR1
  phosphorylation enrichment: 0.631
EPHB1
  phosphorylation enrichment: 0.459
Fes
  phosphorylation enrichment: 0.962
EPHB2
  phosphorylation enrichment: 0.507
Jak2
  phosphorylation enrichment: 0.663
FGFR3
  phosphorylation enrichment: 0.664
c-Abl (mouse)
  phosphorylation enrichment: 0.566
AncSZ
  phosphorylation enrichment: 0.826
c-Src
  phosphorylation enrichment: 0.681
Hck
  phosphorylation enrichment: 0.566
MERTK
  phosphorylation enrichment: 0.46
Fyn
  phosphorylation enrichment: 0.764

## DISEPYEVYRI [IRF8_Y107_K108E]
c-Src SH2
  SH2 binding enrichment: 0.638
Grb2 SH2
  SH2 binding enrichment: 0.76
SHP2-C SH2
  SH2 binding enrichment: 0.401
Fer (mouse)
  phosphorylation enrichment: 9.63
FGFR1
  phosphorylation enrichment: 0.736
EPHB1
  phosphorylation enrichment: 0.425
Fes
  phosphorylation enrichment: 1.05
EPHB2
  phosphorylation enrichment: 0.634
Jak2
  phosphorylation enrichment: 0.912
FGFR3
  phosphorylation enrichment: 0.624
c-Abl (mouse)
  phosphorylation enrichment: 0.862
AncSZ
  phosphorylation enrichment: 2.01
c-Src
  phosphorylation enrichment: 3.97
Hck
  phosphorylation enrichment: 1.28
MERTK
  phosphorylation enrichment: 0.522
Fyn
  phosphorylation enrichment: 1.55
